Experiment [1] concerns the target recombinant native human IGF-1 (human) (UniProt P05019). Briefly: SPR at 37 °C, antibody captured, analyte in solution.
Experiment [2] has as its target T1, Thermus thermophilus SlyD-IGF-1 (74-90) chimeric polypeptide.
T1 sequence: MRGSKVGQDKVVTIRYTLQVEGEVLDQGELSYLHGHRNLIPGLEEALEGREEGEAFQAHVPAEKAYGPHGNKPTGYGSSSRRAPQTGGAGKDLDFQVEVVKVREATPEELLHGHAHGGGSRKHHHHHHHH
The description is as above.

Experiment [3] addresses recombinant native human IGF-1 (human) (UniProt P05019). Described as above. The source holds these as a separate data set.
In experiment [4] the target is T1, Thermus thermophilus SlyD-IGF-1 (74-90) chimeric polypeptide. The experiment is described as follows: SPR at 25 °C, antibody captured, antigen in solution.
Experiment [5] has as its target recombinant native human IGF-1 (human) (UniProt P05019). The experiment is described as above.
The target of experiment [6] is T2, recombinant wild-type Thermus thermophilus SlyD (His6 tagged control) (Thermus thermophilus).
T2 sequence: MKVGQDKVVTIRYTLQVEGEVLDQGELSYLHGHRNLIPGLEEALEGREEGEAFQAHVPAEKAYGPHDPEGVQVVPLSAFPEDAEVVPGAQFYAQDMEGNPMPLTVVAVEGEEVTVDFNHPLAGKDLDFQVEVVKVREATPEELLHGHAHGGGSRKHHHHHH
The experiment is described as follows: ELISA, undiluted culture supernatant. In general terms: An ELISA detects its analyte on a solid surface through an enzyme-linked reagent.

The target in experiment [7] is T1, Thermus thermophilus SlyD-IGF-1 (74-90) chimeric polypeptide. Briefly: ELISA, undiluted culture supernatant.
The target of experiment [8] is recombinant native human IGF-1 (human) (UniProt P05019). Briefly: ELISA, undiluted culture supernatant.

This note sets out measurements from patent US20260193638A1.

B1: monoclonal antibody M-11.11.17 (antibody, from a related filing, V domains shown)
VH: QVQLQQSGAELVRPGSSVKISCKASGYAFSNLWMNWVKQRPGQGLEWIGQIYPGDGDTNYYGDFKGKATLTADSSSSTAYMQLSRLTSEDSAVYFCARIGYYGMDYWGQGTSVTVSS
VL: DVVLTQTPLSLPVNIGDEASISCKSTKSLLSSDGLTYLDWYLQKPGQSPQVLIYLVSNRFSGVPDRFSGSGSGTDFTLKISRVEAEDLGVYYCFQSNYLPTFGAGTKLELK
B1: the Ka in experiment [1] came out at 2.2e+10 M⁻¹. Besides, the Kd (in general, the constant that tells how readily two partners part at equilibrium) was determined as 0.046 nM in experiment [1], 0.01 nM in experiment [4] and 0.01 nM in experiment [5]. For the same molecule, the koff (usually the first-order rate constant of dissociation) in experiment [1] worked out at 0.00014 s⁻¹; in experiment [2], 1e-05 s⁻¹; in experiment [3] it was 1e-05 s⁻¹; in experiment [4], 1e-05 s⁻¹; in experiment [5] it was 2.1e-05 s⁻¹. The results for the kon in experiment [1], in experiment [4] and in experiment [5] were 3.1e+06 M⁻¹ s⁻¹, 710000 M⁻¹ s⁻¹ and 2e+06 M⁻¹ s⁻¹, respectively. Also, the t/2-diss in experiment [1] came to 81 min; in experiment [2], 1160 min; in experiment [3] it was 1160 min; in experiment [4] it was 1110 min; in experiment [5] it was 560 min. Further, the MR in experiment [4] and in experiment [5] was 2 in each case. Moreover, the reactivity in experiment [6] turned out to be 32 mE; in experiment [7], 2150 mE; in experiment [8], 2430 mE.

B2: monoclonal antibody M-10.7.9 (antibody, from a related filing, V domains shown)
VH: QVQLQQSGAELVRPGSSVKISCKASGYAFSSYWMNWVKQRPGQGLEWIGQIYPGDGDTNHNGKFKGKATLTADKSSSTVYMQLSSLTSEDSAVYFCARSGDYYGKDYWGQGTTLTVSS
VL: DIVLTQTPPSLPVNMGQKATISYKATKSLLNTDGYTYMHWNQQKPGQPPKLLIYLVSNRESGVPDRFSGSGSGTDFTLNINTVEEEDAATYYCHHSNELPHTFGAGTKLEIK
Take B2: the Ka in experiment [1] was 2.2e+08 M⁻¹. Also, the results for the Kd in experiment [1], in experiment [4] and in experiment [5] were 4.5 nM, 2.4 nM and 1.6 nM, respectively. In addition, the koff is 0.006 s⁻¹ in experiment [1]; 1e-05 s⁻¹ in experiment [2]; 1e-05 s⁻¹ in experiment [3]; 0.00069 s⁻¹ in experiment [4]; 0.0015 s⁻¹ in experiment [5]. The kon – broadly, the rate constant with which the complex forms – in experiment [1] is 1.3e+06 M⁻¹ s⁻¹; in experiment [4] it was 290000 M⁻¹ s⁻¹; in experiment [5] it was 920000 M⁻¹ s⁻¹. Moreover, the t/2-diss in experiment [1] was 2 min; in experiment [2], 1160 min; in experiment [3], 1160 min; in experiment [4], 17 min; in experiment [5], 8 min. For the same molecule, the MR was 1.8 in experiment [4] and 1.7 in experiment [5]. Also, the reactivity in experiment [6] amounted to 36 mE; in experiment [7] it was 1900 mE; in experiment [8], 2110 mE.
